“And” between values parts separate entries of the source, which are not always exact repeats. Equal values may be shown once.
Columns and labels:
Rhesus = test: Serum antibody detection (ELISA) in long-term toxicity study; format: in vivo; conditions: 7.5, 15, 75 μg/kg/d iv, 1, 2, 3-week and end of convalescent period
Method: Sealing: Wash the plate 5 times, prepare 5% evaporated skimmed milk with cleaning solution.
Dilute the scheduled for testing serum; dilute the sample with sample dilution solution, dilute gradient is 1:100.
Add sample: Wash the sealed enzyme labeled plate for 3 times, add scheduled for testing serum, 100 μl/hole, 37° C. for 1 hour.
Add enzyme labeled antibody: Wash the plate 5 times, add 1:1000 diluted HRP labeled rat anti-monkey immunoglobulin, […], 37° C. for 1 hour.
Substrate: Wash the plate 5 times, add newly prepared substrate operating fluid, 100 μl/hole, 37° C. for 10 minutes.
Ending: add 2N H2SO4, 50 μl/hole to end the reaction.
Odd value detection: Positive result was defined as OD value of testing sample was 2.1 time greater than that of the negative control (serum was 1:100 diluted).

[1] = system: toxic myocarditis caused by Adriamycin in rat; test: Hemodynamics index, Adriamycin rat model; format: in vivo, SD rat; conditions: rat, Adriamycin model
Method: rhNRG-1 β was injected into the tail vein within 24 hours after the first injection of Adriamycin. During the experiment, animal survival was dynamically monitored, heart function indexes (maximal rate of pressure increase within left ventricle, […], maximal rate of pressure decrease within left ventricle, −dp/dt, systolic end pressure of left ventricle LVPmax, diastolic end pressure of left ventricle LVPmin) were monitored at the 5th week. Section was made from the heart tissue and pathological changes examined.
Hemodynamics index such as carotid artery pressure, intra-ventricular pressure. dp/dt was measured with six lead physiology recorder. Major procedure: separate the right carotid artery, ligate its distal end and block its proximal end with arterial clamps, 20 G arteriovenous indwelling needle was inserted into the carotid artery, took out the medal stylet, loosened the artery clamps, push the plastic trocar further into appropriate depth, indwelled for 10 minutes, observed the wave style recorded by the physiology recorder, after it was stable, then recorded the carotid artery pressure and push the trocar further into the left ventricle, kept in place for 15 minutes, after it was stable, then recorded the dp/dt, −dp/dt, LVPmax and LVPmin.

[2] = 10 μg/kg iv qd × 10 d, (I), listed as rhNRG-1β
[3] = 20 μg/kg iv qd × 10 d, (I), listed as rhNRG-1β
[4] = 40 μg/kg iv qd × 10 d, (I), listed as rhNRG-1β

B1: rhNRG-1 β: Recombinant human neuregulin fragment of 61 amino acid (SEQ ID NO:4), 3 disulfide bonds, expressed in E. coli (protein, listed as Homo sapiens)
chain: SHLVKCAEKEKTFCVNGGECFMVKDLSNPSRYLCKCPNEFTGDRCQNYVMASFYKAEELYQ
modifications: disulfide (positions not given here)
antibody testing (Rhesus): negative results | +dp/dt ([1]; 10 μg/kg iv qd × 10 d, (I)): 4875±636 mmHg/s and 4875 mmHg/s | LVPmax ([1]; 10 μg/kg iv qd × 10 d, (I)): 145±15.2 mmHg and 145 mmHg | LVPmin ([1]; 10 μg/kg iv qd × 10 d, (I)): −24.5 mmHg | −dp/dt ([1]; 10 μg/kg iv qd × 10 d, (I)): −3672±884 mmHg/s and −3672 mmHg/s | +dp/dt [1, 2]: 4875±636 mmHg/s | LVPmax [1, 2]: 145±15.2 mmHg | −dp/dt [1, 2]: −3672±884 mmHg/s | +dp/dt ([1]; 10 μg/kg iv qd × 10 d, (II)): 4956 mmHg/s | LVPmax ([1]; 10 μg/kg iv qd × 10 d, (II)): 158.2 mmHg | LVPmin ([1]; 10 μg/kg iv qd × 10 d, (II)): −22.4 mmHg | −dp/dt ([1]; 10 μg/kg iv qd × 10 d, (II)): −3626 mmHg/s | +dp/dt ([1]; 20 μg/kg iv qd × 10 d, (I)): 6107±418 mmHg/s and 6107 mmHg/s | LVPmax ([1]; 20 μg/kg iv qd × 10 d, (I)): 156.1±17.7 mmHg and 156.1 mmHg | LVPmin ([1]; 20 μg/kg iv qd × 10 d, (I)): −26.9 mmHg | −dp/dt ([1]; 20 μg/kg iv qd × 10 d, (I)): −4323±457 mmHg/s and −4323 mmHg/s | +dp/dt [1, 3]: 6107±418 mmHg/s | LVPmax [1, 3]: 156.1±17.7 mmHg | −dp/dt [1, 3]: −4323±457 mmHg/s | +dp/dt ([1]; 20 μg/kg iv qd × 10 d, (II)): 5833 mmHg/s | LVPmax ([1]; 20 μg/kg iv qd × 10 d, (II)): 157.7 mmHg | LVPmin ([1]; 20 μg/kg iv qd × 10 d, (II)): −26.6 mmHg | −dp/dt ([1]; 20 μg/kg iv qd × 10 d, (II)): −4345 mmHg/s | +dp/dt ([1]; 40 μg/kg iv qd × 10 d, (I)): 5954±689 mmHg/s and 5954 mmHg/s | LVPmax ([1]; 40 μg/kg iv qd × 10 d, (I)): 165.7±22.7 mmHg and 165.7 mmHg | LVPmin ([1]; 40 μg/kg iv qd × 10 d, (I)): −27.4 mmHg | −dp/dt ([1]; 40 μg/kg iv qd × 10 d, (I)): −4794±954 mmHg/s and −4794 mmHg/s | +dp/dt [1, 4]: 5954±689 mmHg/s | LVPmax [1, 4]: 165.7±22.7 mmHg | −dp/dt [1, 4]: −4794±954 mmHg/s | +dp/dt ([1]; 40 μg/kg iv qd × 10 d, (II)): 6041 mmHg/s | LVPmax ([1]; 40 μg/kg iv qd × 10 d, (II)): 166.3 mmHg | LVPmin ([1]; 40 μg/kg iv qd × 10 d, (II)): −22.2 mmHg | −dp/dt ([1]; 40 μg/kg iv qd × 10 d, (II)): −4529 mmHg/s

Source: patent US9555076B2, “Neuregulin based methods and compositions for treating cardiovascular diseases” (Zensun (Shanghai) Science & Technology, Co., Ltd., priority 2002, dated 2017)
